Experimental data as given in the supplement of paper PMC10065799, “High-throughput profiling of sequence recognition by tyrosine kinases and SH2 domains using bacterial peptide display” (eLife, 2023).

What was measured:
Fer (mouse) = test: phosphorylation enrichment, bacterial display (enrichment ratio); higher = better substrate or ligand; peptides without Tyr show the background
AncSZ = test: as above
Fyn = Fyn (UniProt P06241); test: as above
MERTK = MERTK (UniProt Q12866); test: as above
Fes = Fes (UniProt P07332); test: as above
Jak2 = Jak2 (UniProt O60674); test: as above
c-Abl (mouse) = test: as above
EPHB2 = EPHB2 (UniProt P29323); test: as above
FGFR3 = FGFR3 (UniProt P22607); test: as above
EPHB1 = EPHB1 (UniProt P54762); test: as above
c-Src = test: as above
Hck = Hck (UniProt P08631); test: as above
FGFR1 = FGFR1 (UniProt P11362); test: as above
Grb2 SH2 = Grb2 SH2 (UniProt P62993); test: SH2 binding enrichment of the phosphorylated peptide, bacterial display (enrichment ratio); higher = better substrate or ligand; peptides without Tyr show the background
SHP2-C SH2 = test: as above
c-Src SH2 = test: as above
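For SH2 binding enrichment of the phosphorylated peptide, bacterial display in this document: peptide library displayed on the E. coli surface as eCPX fusions, selected cells deep-sequenced, score is each peptide's frequency after selection divided by its frequency in the input.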
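For phosphorylation enrichment, bacterial display in this document: 11-residue human phosphosite peptides and single-mutation variants displayed on the E. coli surface, counted by deep sequencing, each peptide's frequency after selection divided by its frequency in the unselected input library; frequency after pTyr selection over input frequency; kinase dosed for 20-30% of maximal phosphorylation in three min.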

Chain of Jak2 (O60674 whole entry, looked up): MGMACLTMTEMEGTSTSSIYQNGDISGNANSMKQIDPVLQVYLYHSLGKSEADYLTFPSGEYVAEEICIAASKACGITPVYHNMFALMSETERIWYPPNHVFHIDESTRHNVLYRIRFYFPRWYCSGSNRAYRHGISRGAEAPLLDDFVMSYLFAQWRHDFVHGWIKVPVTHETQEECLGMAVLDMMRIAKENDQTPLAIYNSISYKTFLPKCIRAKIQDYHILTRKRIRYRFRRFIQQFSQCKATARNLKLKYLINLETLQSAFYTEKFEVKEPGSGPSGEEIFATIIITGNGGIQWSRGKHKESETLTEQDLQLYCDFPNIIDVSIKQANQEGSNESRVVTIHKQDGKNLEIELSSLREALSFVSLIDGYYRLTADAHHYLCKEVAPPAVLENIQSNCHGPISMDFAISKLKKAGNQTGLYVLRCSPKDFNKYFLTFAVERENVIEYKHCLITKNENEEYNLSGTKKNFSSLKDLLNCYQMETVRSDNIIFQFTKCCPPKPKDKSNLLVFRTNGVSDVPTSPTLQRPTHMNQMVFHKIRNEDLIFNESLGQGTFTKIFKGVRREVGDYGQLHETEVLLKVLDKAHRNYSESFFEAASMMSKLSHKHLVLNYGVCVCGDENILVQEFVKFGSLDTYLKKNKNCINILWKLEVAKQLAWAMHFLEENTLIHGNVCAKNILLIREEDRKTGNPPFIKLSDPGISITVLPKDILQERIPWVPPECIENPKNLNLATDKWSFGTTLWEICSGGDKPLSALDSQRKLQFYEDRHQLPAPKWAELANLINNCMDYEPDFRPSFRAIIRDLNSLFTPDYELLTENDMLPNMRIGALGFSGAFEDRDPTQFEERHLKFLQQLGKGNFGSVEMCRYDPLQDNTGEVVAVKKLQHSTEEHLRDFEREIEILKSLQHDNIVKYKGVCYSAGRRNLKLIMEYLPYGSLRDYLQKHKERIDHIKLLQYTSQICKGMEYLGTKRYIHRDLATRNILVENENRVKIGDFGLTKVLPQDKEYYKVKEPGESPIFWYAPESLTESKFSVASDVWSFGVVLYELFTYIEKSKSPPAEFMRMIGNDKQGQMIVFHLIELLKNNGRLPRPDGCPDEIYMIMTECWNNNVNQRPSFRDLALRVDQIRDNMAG
Chain of EPHB2 (P29323 whole entry, looked up): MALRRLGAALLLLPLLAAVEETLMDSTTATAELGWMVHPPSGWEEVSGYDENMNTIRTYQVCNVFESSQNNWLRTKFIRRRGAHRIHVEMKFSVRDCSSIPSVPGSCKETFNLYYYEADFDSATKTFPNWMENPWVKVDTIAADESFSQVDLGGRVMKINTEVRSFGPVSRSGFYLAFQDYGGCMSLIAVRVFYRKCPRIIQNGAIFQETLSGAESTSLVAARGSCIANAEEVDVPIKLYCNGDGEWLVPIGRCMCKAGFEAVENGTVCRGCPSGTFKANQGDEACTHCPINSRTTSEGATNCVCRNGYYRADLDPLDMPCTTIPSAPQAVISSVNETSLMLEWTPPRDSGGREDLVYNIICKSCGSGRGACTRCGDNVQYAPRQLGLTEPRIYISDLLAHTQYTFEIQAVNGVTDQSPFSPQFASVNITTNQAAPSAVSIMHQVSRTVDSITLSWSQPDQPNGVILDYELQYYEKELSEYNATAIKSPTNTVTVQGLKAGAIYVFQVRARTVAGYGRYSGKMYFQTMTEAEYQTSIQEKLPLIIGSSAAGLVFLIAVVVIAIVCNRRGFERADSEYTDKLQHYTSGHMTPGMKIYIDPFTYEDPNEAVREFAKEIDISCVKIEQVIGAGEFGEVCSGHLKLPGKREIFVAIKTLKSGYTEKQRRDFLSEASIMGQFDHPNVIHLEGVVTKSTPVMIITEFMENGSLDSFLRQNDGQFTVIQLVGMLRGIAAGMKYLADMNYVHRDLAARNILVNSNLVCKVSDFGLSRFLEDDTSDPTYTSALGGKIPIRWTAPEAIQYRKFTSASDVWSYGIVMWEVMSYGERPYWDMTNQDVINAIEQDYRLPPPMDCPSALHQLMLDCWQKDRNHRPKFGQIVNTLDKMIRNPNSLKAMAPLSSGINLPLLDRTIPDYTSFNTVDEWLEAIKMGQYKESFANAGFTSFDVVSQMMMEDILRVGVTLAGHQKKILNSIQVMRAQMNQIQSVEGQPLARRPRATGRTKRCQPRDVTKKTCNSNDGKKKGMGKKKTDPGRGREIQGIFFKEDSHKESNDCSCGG
Chain of EPHB1 (P54762 whole entry, looked up): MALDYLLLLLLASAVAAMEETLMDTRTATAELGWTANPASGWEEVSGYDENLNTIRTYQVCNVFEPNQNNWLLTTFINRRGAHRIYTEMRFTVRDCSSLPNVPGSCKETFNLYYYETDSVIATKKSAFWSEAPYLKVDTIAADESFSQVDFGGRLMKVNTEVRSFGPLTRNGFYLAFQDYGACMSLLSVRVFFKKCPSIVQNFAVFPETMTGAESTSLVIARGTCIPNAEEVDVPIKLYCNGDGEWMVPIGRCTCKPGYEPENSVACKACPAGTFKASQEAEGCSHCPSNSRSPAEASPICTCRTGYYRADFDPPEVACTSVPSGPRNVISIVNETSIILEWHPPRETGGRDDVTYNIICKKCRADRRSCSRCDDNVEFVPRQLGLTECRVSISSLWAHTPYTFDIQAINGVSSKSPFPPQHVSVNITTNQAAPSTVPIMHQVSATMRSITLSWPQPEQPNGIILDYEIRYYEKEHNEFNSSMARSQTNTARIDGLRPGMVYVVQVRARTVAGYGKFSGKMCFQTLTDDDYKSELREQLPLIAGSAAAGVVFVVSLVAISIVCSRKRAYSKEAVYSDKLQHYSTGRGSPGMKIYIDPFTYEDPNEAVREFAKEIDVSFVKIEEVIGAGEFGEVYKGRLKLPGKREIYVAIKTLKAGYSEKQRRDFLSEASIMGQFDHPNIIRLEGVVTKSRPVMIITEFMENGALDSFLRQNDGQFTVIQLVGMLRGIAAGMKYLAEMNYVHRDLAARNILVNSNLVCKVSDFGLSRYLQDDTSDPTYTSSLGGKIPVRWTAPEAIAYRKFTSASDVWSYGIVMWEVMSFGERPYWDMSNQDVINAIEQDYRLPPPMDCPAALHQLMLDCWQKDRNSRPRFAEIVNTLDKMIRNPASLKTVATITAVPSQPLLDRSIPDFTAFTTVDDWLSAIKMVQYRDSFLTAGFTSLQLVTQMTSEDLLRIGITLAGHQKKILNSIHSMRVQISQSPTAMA
Chain of MERTK (Q12866 whole entry, looked up): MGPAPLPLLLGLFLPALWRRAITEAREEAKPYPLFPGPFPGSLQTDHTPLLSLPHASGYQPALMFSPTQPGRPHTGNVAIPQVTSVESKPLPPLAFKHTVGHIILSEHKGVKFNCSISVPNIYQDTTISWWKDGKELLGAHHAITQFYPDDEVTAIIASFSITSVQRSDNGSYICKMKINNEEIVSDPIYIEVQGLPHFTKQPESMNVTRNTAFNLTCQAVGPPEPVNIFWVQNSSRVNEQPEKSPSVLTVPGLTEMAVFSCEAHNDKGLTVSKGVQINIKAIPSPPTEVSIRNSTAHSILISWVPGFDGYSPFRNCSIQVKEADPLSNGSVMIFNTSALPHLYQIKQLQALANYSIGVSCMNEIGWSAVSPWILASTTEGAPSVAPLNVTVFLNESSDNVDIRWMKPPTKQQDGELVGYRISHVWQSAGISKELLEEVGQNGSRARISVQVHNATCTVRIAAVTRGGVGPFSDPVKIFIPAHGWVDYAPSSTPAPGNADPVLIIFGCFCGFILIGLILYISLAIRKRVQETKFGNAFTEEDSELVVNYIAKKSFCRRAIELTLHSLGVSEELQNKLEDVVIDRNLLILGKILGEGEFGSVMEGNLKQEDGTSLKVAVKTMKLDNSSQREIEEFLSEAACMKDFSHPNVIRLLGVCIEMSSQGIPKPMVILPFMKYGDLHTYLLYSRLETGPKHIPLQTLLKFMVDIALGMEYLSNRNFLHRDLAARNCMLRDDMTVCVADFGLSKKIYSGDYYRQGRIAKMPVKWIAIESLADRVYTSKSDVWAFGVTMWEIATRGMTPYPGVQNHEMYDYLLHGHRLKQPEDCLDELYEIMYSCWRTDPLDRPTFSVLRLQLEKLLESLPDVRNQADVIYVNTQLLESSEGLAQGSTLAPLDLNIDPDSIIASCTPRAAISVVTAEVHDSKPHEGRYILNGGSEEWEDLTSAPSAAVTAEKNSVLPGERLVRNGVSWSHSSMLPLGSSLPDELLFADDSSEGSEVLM
Chain of Hck (P08631 whole entry, looked up): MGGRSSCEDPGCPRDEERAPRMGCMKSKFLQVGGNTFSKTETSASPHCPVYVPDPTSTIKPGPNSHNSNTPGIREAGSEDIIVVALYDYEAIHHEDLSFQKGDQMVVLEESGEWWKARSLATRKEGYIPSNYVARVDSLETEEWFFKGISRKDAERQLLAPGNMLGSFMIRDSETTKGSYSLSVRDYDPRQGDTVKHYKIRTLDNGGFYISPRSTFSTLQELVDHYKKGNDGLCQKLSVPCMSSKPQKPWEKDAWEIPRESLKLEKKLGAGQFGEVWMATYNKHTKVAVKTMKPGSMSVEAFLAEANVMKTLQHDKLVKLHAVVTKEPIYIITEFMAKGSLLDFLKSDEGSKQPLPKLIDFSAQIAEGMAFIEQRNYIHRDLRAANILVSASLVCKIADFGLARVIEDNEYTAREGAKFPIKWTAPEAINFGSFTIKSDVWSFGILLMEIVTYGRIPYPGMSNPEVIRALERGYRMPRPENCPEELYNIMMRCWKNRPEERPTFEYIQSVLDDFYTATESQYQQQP

Row | Sequence | SH2 binding enrichment (Grb2 SH2) | SH2 binding enrichment (SHP2-C SH2) | SH2 binding enrichment (c-Src SH2) | phosphorylation enrichment (Fer (mouse)) | phosphorylation enrichment (AncSZ) | phosphorylation enrichment (Fyn) | phosphorylation enrichment (MERTK) | phosphorylation enrichment (Fes) | phosphorylation enrichment (Jak2) | phosphorylation enrichment (c-Abl (mouse)) | phosphorylation enrichment (EPHB2) | phosphorylation enrichment (FGFR3) | phosphorylation enrichment (EPHB1) | phosphorylation enrichment (c-Src) | phosphorylation enrichment (Hck) | phosphorylation enrichment (FGFR1)
1 | RYLTRYIYNRE [HLA-DQB1_Y62_V59L] | 1.11 | 0.763 | 0.627 | 0.813 | 1.91 | 1.11 | 3.87 | 1.32 | 1.92 | 1.07 | 0.773 | 0.772 | 4.73 | 1.57 | 0.621 | 0.564
2 | SAQHHYESLQT [BIN1_Y157_R154Q] | 0.781 | 0.903 | 36.4 | 0.703 | 0.763 | 0.418 | 0.504 | 0.622 | 0.484 | 0.601 | 0.402 | 0.442 | 0.463 | 0.433 | 0.513 | 0.47
3 | SARHHYESLQT [BIN1_Y157] | 0.854 | 0.952 | 34.4 | 0.499 | 0.532 | 0.36 | 0.455 | 0.564 | 0.479 | 0.636 | 0.374 | 0.396 | 0.431 | 0.447 | 0.446 | 0.445
4 | SEEVTYATLTF [CLEC12B_Y7] | 0.845 | 2.52 | 0.481 | 2.19 | 1.48 | 6.58 | 2.18 | 1.53 | 1.38 | 5.98 | 1.07 | 1.57 | 0.98 | 5.28 | 5.06 | 1.49
5 | SFPPTYRFERG [INPPL1_Y661_YF] | 0.868 | 0.767 | 0.442 | 0.362 | 0.638 | 0.412 | 0.418 | 0.603 | 0.51 | 0.556 | 0.626 | 0.476 | 0.405 | 0.592 | 0.369 | 0.393
6 | SFTDPYAQPSL [KMT2D_Y2378_P2382S_YF] | 0.777 | 0.759 | 2.12 | 0.447 | 0.743 | 0.481 | 0.429 | 0.806 | 0.689 | 0.747 | 0.526 | 0.67 | 0.47 | 0.447 | 0.581 | 0.508
7 | SGTFQYIIAKF [FOXL2_Y83_I80T_YF] | 0.699 | 0.572 | 0.58 | 0.473 | 1.09 | 0.532 | 0.393 | 1.27 | 0.953 | 0.878 | 0.491 | 0.793 | 0.448 | 0.366 | 0.418 | 0.494
8 | SHKELYKWFTS [DYNC1H1_Y3051_E3048K] | 1.02 | 1.05 | 0.777 | 0.574 | 0.634 | 0.513 | 0.66 | 0.812 | 0.717 | 0.566 | 0.439 | 0.501 | 0.544 | 0.576 | 0.566 | 0.897
9 | SHLSAFPALEG [CD5_Y465_Y465F] | 0.734 | 0.751 | 0.529 | 0.312 | 0.553 | 0.352 | 0.347 | 0.612 | 0.5 | 0.407 | 0.367 | 0.52 | 0.431 | 0.328 | 0.402 | 0.354
10 | SHSMRYFFTAV [HLA-C_Y31_D33F] | 1.39 | 1.33 | 1.25 | 0.619 | 1.13 | 0.53 | 0.525 | 1.3 | 1.13 | 0.923 | 0.626 | 0.874 | 0.595 | 0.568 | 0.525 | 0.62
11 | SIKDKHVTALF [KCNH2_Y611_Y611H_YF] | 0.659 | 0.456 | 0.443 | 0.399 | 0.576 | 0.417 | 0.469 | 0.633 | 0.441 | 0.486 | 0.42 | 0.435 | 0.354 | 0.52 | 0.463 | 0.418
12 | SISLKYEGRVY [ABL1_Y167_R166K] | 0.814 | 0.66 | 0.388 | 0.499 | 1.13 | 0.47 | 0.451 | 1.38 | 1.24 | 0.983 | 0.747 | 0.897 | 0.663 | 0.511 | 0.507 | 0.51
13 | SKEPFYVHCIK [MYO1D_Y586_R588H_YF] | 0.981 | 0.898 | 0.574 | 0.467 | 1.08 | 0.44 | 0.433 | 1.07 | 0.864 | 0.631 | 0.577 | 0.682 | 0.614 | 0.418 | 0.528 | 0.484
14 | SKKSTYRALLD [GANC_Y43_Q44R] | 0.651 | 0.688 | 0.465 | 0.358 | 0.471 | 0.432 | 0.421 | 0.655 | 0.533 | 0.447 | 0.315 | 0.348 | 0.368 | 0.385 | 0.406 | 0.347
15 | SLDHPYEKPRK [INAVA_Y333] | 0.852 | 0.683 | 1.77 | 0.388 | 0.741 | 0.371 | 0.329 | 0.63 | 0.436 | 0.423 | 0.467 | 0.421 | 0.349 | 0.352 | 0.39 | 0.339
16 | SLEKSYELLDG [ACTB_Y240_P243L] | 1.01 | 0.729 | 4.69 | 0.705 | 1.16 | 0.533 | 0.555 | 1.16 | 1.25 | 0.956 | 0.584 | 0.963 | 0.575 | 0.52 | 0.595 | 0.508
17 | SLIDGYYRLTA [JAK2_Y372] | 0.986 | 6.44 | 2.57 | 0.427 | 0.92 | 0.467 | 0.436 | 0.926 | 7.08 | 0.522 | 0.495 | 1.69 | 0.457 | 0.451 | 0.475 | 2.49
18 | SMGHRYIEVFK [HNRNPF_Y82] | 1.03 | 0.988 | 2.08 | 0.438 | 0.744 | 0.354 | 0.361 | 1 | 1.05 | 0.757 | 0.38 | 0.483 | 0.398 | 0.445 | 0.407 | 0.408
19 | SQQTYYPVSNM [ABCD1_Y181_R182P] | 0.864 | 0.534 | 0.532 | 0.946 | 1.32 | 3.77 | 10.5 | 0.68 | 9.57 | 2.44 | 4.24 | 10.5 | 5.58 | 5.27 | 6.81 | 13.5
20 | SRDTRYLVLAV [AMH_Y195] | 1.13 | 2.34 | 0.811 | 0.552 | 0.93 | 0.492 | 0.487 | 1.1 | 0.909 | 0.739 | 0.559 | 0.683 | 0.636 | 0.514 | 0.476 | 0.543

Further lines, with some results ahead:

Row | SH2 binding enrichment (Grb2 SH2) | SH2 binding enrichment (SHP2-C SH2) | SH2 binding enrichment (c-Src SH2) | Sequence | phosphorylation enrichment (Fer (mouse)) | phosphorylation enrichment (AncSZ) | phosphorylation enrichment (Fyn) | phosphorylation enrichment (MERTK) | phosphorylation enrichment (Fes) | phosphorylation enrichment (Jak2) | phosphorylation enrichment (c-Abl (mouse)) | phosphorylation enrichment (EPHB2) | phosphorylation enrichment (FGFR3) | phosphorylation enrichment (EPHB1) | phosphorylation enrichment (c-Src) | phosphorylation enrichment (Hck) | phosphorylation enrichment (FGFR1)
21 | 0.845 | 0.676 | 0.636 | SDGHEYIFVDR [PDGFRB_Y579_P584R_YF] | 0.329 | 0.962 | 0.436 | 0.35 | 0.759 | 0.71 | 0.489 | 0.448 | 0.833 | 0.427 | 0.517 | 0.398 | 1.04
22 | 0.739 | 0.477 | 0.43 | SECCKYKIDNL [OSMR_Y689_P694L] | 0.473 | 0.864 | 0.446 | 0.432 | 0.939 | 0.823 | 0.748 | 0.384 | 0.685 | 0.551 | 0.436 | 0.428 | 0.462
23 | 0.735 | 0.737 | 0.425 | SGFESYGSSSS [RPA2_Y9_Y14S] | 0.521 | 0.651 | 0.453 | 0.502 | 0.658 | 0.555 | 0.633 | 0.617 | 0.599 | 0.47 | 0.541 | 0.484 | 0.461
24 | 0.803 | 0.723 | 0.539 | SGPRRYTIATL [TTR_Y125_A129T] | 0.361 | 0.472 | 0.377 | 0.425 | 0.44 | 1.03 | 0.39 | 0.344 | 0.398 | 1.36 | 0.375 | 0.372 | 0.432
25 | 0.942 | 0.913 | 1.44 | SKAFAYVHFDS [PABPC5_Y149_G146A_YF] | 0.537 | 0.935 | 0.382 | 0.443 | 1.36 | 1.09 | 0.669 | 0.483 | 0.828 | 0.447 | 0.424 | 0.51 | 0.449
26 | 0.764 | 0.607 | 0.482 | SLESAYPEVSQ [TTF1_Y357_G360V] | 0.4 | 0.951 | 0.447 | 0.471 | 0.941 | 1.09 | 1.55 | 0.792 | 0.611 | 0.514 | 0.523 | 0.858 | 0.507
27 | 0.927 | 0.806 | 0.929 | SLIEHYEPSET [PLCD1_Y258_R257H] | 0.525 | 1.05 | 0.513 | 0.422 | 0.977 | 0.983 | 0.624 | 0.548 | 0.704 | 0.541 | 0.446 | 0.535 | 0.586
28 | 1.3 | 0.978 | 1.15 | SLLLSYFLIKW [NUP160_Y773_P768S_YF] | 0.719 | 1.56 | 0.589 | 0.514 | 1.46 | 1.51 | 1.05 | 0.788 | 1.08 | 0.691 | 0.512 | 0.654 | 0.732
29 | 0.906 | 0.786 | 0.549 | SMEMKYLEEKN [ZAP70_Y451_G448E] | 0.572 | 1.15 | 0.706 | 0.48 | 1.47 | 1.22 | 1.17 | 0.659 | 1.07 | 0.825 | 0.609 | 0.548 | 0.535
30 | 1.01 | 0.783 | 0.72 | SNKLHYQLEQE [PDPR_Y110_Y109H] | 0.498 | 0.917 | 0.519 | 0.442 | 1 | 0.699 | 0.647 | 0.505 | 0.673 | 0.504 | 0.443 | 0.535 | 0.496
31 | 0.782 | 0.683 | 0.499 | SPDMLYQFLKQ [RPAP3_Y567_YF] | 7.72 | 0.997 | 0.792 | 4.98 | 0.971 | 0.679 | 0.695 | 0.749 | 1.35 | 0.943 | 1.77 | 7.82 | 1.7
32 | 0.711 | 1.16 | 0.611 | SPPEVYAIMRG [NTRK1_Y757_C752S] | 0.525 | 0.99 | 1.63 | 1.82 | 0.808 | 0.718 | 0.609 | 0.641 | 0.524 | 1.12 | 2.64 | 2.91 | 0.506
33 | 0.725 | 0.531 | 0.546 | SRLDSYVRSLP [TRAPPC1_Y133] | 0.338 | 0.579 | 0.373 | 0.447 | 0.666 | 0.556 | 0.473 | 0.395 | 0.525 | 0.606 | 0.448 | 0.443 | 0.427
